US20050158748

Columns and labels:
[1] = system: ribosomal protein S6 (in purified 40S ribosomal subunits from liver)
[2] = system: synthetic peptide representing C-terminus of S6 protein

## recombinant p70α^S6k (Flag-tag or EE-tag version, expressed in HEK293 cells)
[1]
  in vitro kinase reaction: phosphorylation of S6 protein in 40S subunits: p70β^S6k (p70β-II isoform) phosphorylates the S6 protein in vitro nearly as efficiently as p70α^S6k
[2]
  in vitro kinase reaction: phosphorylation of the synthetic peptide: also phosphorylates this peptide but with slightly lower efficiency than observed with p70α^S6k
